Measurements as given in US20220119534A1 (DRAGONFLY THERAPEUTICS, published 2022).
Values joined by “and” are separate entries in the source; they are usually repeats but may differ in a detail not shown here. Identical values can stand only once. Values belong to the binder of their own block, whether it stands above or below them.

Legend:
mFc-hNKG2D [1] = target: T1, mFc-hNKG2D (human, UniProt P26718 73-216); assay: SPR Biacore 8K 37 C; mFc-hNKG2D captured on anti-mFc chip, TriNKET as analyte; steady state fit; control sample
T1 construct: extracellular domain; Made in house (Dragonfly Tx); the order of tag and ECD follows the name mFc-hNKG2D; also called mFc-tagged human NKG2D; not shown: mouse Fc tag
T1 sequence (looked up): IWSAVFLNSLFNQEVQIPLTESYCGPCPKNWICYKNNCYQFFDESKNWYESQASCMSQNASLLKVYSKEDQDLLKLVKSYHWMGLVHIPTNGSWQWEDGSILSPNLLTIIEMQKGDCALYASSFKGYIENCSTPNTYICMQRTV

mFc-hNKG2D [2] = target: T1, mFc-hNKG2D; assay: SPR Biacore 8K 37 C; mFc-hNKG2D captured on anti-mFc chip, TriNKET as analyte; steady state fit; un-oxidized control
[3] = target: T2, human CLEC12A on cells (HL60, PL21, Ba/F3-hCLEC12A) (human, UniProt Q5QGZ9 1-265); assay: flow cytometry, Ba/F3-hCLEC12A cells
T2 construct: Endogenous on the AML lines HL60 and PL21; brought into mouse Ba/F3 cells by retroviral transduction; The cell line stands under assay; also called CLL-1
T2 sequence: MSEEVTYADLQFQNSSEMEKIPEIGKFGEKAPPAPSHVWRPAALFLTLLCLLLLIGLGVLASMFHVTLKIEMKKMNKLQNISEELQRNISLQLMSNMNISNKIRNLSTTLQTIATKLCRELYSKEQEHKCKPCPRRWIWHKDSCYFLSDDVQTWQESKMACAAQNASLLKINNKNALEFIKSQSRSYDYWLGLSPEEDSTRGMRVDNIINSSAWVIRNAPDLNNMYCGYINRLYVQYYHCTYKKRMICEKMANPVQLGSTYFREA

Human CLEC12A-His = target: T3, Human CLEC12A-His (human, UniProt Q5QGZ9 65-265); assay: SPR, 37 C, AB0192 captured, hCLEC12A-His analyte
T3 construct: Recombinant soluble protein made in house; also called hCLEC12A-His; hCLEC12A; not shown: His tag
T3 sequence: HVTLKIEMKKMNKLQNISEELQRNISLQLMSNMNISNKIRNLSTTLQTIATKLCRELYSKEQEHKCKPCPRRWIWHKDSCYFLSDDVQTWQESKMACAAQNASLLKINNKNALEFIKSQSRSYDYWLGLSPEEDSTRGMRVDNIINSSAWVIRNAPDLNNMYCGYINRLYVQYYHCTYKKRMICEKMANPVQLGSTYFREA

[4] = target: T4, recombinant human CLEC12A-His (human, UniProt Q5QGZ9 65-265); assay: SPR 37C
T4 construct: also called hCLEC12A-His; hCLEC12A
T4 sequence: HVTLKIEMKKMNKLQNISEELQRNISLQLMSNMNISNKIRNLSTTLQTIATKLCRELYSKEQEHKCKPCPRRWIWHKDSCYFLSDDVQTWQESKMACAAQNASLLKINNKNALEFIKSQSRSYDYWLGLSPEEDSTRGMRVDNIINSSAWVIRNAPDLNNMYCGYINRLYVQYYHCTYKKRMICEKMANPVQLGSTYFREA

[5] = target: T5, human CLEC12A expressed on cells (human, UniProt Q5QGZ9 1-265); assay: flow cytometry, HL-60
T5 construct: Transduced isogenic cells or endogenous expression on AML cells; also called RMA-hCLEC12A; Ba/F3-hCLEC12A
T5 sequence: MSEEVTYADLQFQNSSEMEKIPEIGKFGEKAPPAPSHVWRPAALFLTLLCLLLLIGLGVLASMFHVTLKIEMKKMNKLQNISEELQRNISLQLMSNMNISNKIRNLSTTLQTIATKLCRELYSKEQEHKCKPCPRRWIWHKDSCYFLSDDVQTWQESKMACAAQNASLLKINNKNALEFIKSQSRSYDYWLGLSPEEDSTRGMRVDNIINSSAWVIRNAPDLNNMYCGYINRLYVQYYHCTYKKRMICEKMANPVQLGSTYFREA

Kd (mFc-hNKG2D [1]): 771 nM
Kd (mFc-hNKG2D [2]): 759 nM
B1: F3'-1602 TriNKET (bispecific antibody, human IgG1, kappa)
chain: QLQLQESGPGLVKPSETLSLTCTVSGFSLTNYGLHWIRQPPGKCLEWIGVIWSGGKTDYNPSLKSRVTISKDTSKNQFSLKLSSVQAADTAVYYCAKYDYDDSLDYWGQGTLVTVSSGGGGSGGGGSGGGGSGGGGSDIQMTQSPSSLSASVGDRVTITCHASQNINFWLSWYQQKPGKAPKLLIYEASNLHTGVPSRFSGSGSGTRFTLTISSLQPEDIATYYCQQSHSYPLTFGCGTKLEIKGSDKTHTCPPCPAPELLGGPSVFLFPPKPKDTLMISRTPEVTCVVVDVSHEDPEVKFNWYVDGVEVHNAKTKPREEQYNSTYRVVSVLTVLHQDWLNGKEYKCKVSNKALPAPIEKTISKAKGQPREPRVYTLPPCRDELTKNQVSLTCLVKGFYPSDIAVEWESNGQPENNYKTTPPVLVSDGSFTLYSKLTVDKSRWQQGNVFSCSVMHEALHNHYTQKSLSLSPG
heavy: EVQLVESGGGLVKPGGSLRLSCAASGFTFSSYSMNWVRQAPGKGLEWVSSISSSSSYIYYADSVKGRFTISRDNAKNSLYLQMNSLRAEDTAVYYCARGAPIGAAAGWFDPWGQGTLVTVSSASTKGPSVFPLAPSSKSTSGGTAALGCLVKDYFPEPVTVSWNSGALTSGVHTFPAVLQSSGLYSLSSVVTVPSSSLGTQTYICNVNHKPSNTKVDKKVEPKSCDKTHTCPPCPAPELLGGPSVFLFPPKPKDTLMISRTPEVTCVVVDVSHEDPEVKFNWYVDGVEVHNAKTKPREEQYNSTYRVVSVLTVLHQDWLNGKEYKCKVSNKALPAPIEKTISKAKGQPREPQVCTLPPSRDELTENQVSLTCLVKGFYPSDIAVEWESNGQPENNYKTTPPVLDSDGSFFLYSWLTVDKSRWQQGNVFSCSVMHEALHNHYTQKSLSLSPG
light: DIQMTQSPSSVSASVGDRVTITCRASQGISSWLAWYQQKPGKAPKLLIYAASSLQSGVPSRFSGSGSGTDFTLTISSLQPEDFATYYCQQGVSFPRTFGGGTKVEIKRTVAAPSVFIFPPSDEQLKSGTASVVCLLNNFYPREAKVQWKVDNALQSGNSQESVTEQDSKDSTYSLSSTLTLSKADYEKHKVYACEVTHQGLSSPVTKSFNRGEC
notes: Trispecific F3' format: CLEC12A scFv-Fc paired with NKG2D Fab-Fc; Stressed and control samples of the stability studies are the same molecule; also called AB0237

EC50 [3]: 1.33 nM
FOB (fold over background) [3]: 325 fold
Kd (Human CLEC12A-His): 1.72 nM and 1.99 nM and 1.71 nM
koff (Human CLEC12A-His): 0.00136 s⁻¹ and 0.00151 s⁻¹ and 0.00134 s⁻¹
kon (Human CLEC12A-His): 787000 M⁻¹ s⁻¹ and 757000 M⁻¹ s⁻¹ and 785000 M⁻¹ s⁻¹
B2: AB0192 TriNKET (other)
chain: EVQLVESGGGVVQPGGSLRLSCAASGFTFNAFGMHWVRQAPGKCLEWVAFISSGSTSIYYANTVKGRFTISRDNSKNTLYLQMNSLRAEDTAVYYCARDGYPTGGAMDYWGQGTSVTVSSGGGGSGGGGSGGGGSGGGGSDIQMTQSPSSLSASVGDRVTITCKASQDIYNYLSWFQQKPGKAPKPLIYRANILVSGVPSRFSGSGSGQDYTFTISSLQPEDIATYYCLQFDAFPFTFGCGTKLEIKGSDKTHTCPPCPAPELLGGPSVFLFPPKPKDTLMISRTPEVTCVVVDVSHEDPEVKFNWYVDGVEVHNAKTKPREEQYNSTYRVVSVLTVLHQDWLNGKEYKCKVSNKALPAPIEKTISKAKGQPREPRVYTLPPCRDELTKNQVSLTCLVKGFYPSDIAVEWESNGQPENNYKTTPPVLVSDGSFTLYSKLTVDKSRWQQGNVFSCSVMHEALHNHYTQKSLSLSPG
heavy: EVQLVESGGGLVKPGGSLRLSCAASGFTFSSYSMNWVRQAPGKGLEWVSSISSSSSYIYYADSVKGRFTISRDNAKNSLYLQMNSLRAEDTAVYYCARGAPIGAAAGWFDPWGQGTLVTVSSASTKGPSVFPLAPSSKSTSGGTAALGCLVKDYFPEPVTVSWNSGALTSGVHTFPAVLQSSGLYSLSSVVTVPSSSLGTQTYICNVNHKPSNTKVDKKVEPKSCDKTHTCPPCPAPELLGGPSVFLFPPKPKDTLMISRTPEVTCVVVDVSHEDPEVKFNWYVDGVEVHNAKTKPREEQYNSTYRVVSVLTVLHQDWLNGKEYKCKVSNKALPAPIEKTISKAKGQPREPQVCTLPPSRDELTENQVSLTCLVKGFYPSDIAVEWESNGQPENNYKTTPPVLDSDGSFFLYSWLTVDKSRWQQGNVFSCSVMHEALHNHYTQKSLSLSPG
light: DIQMTQSPSSVSASVGDRVTITCRASQGISSWLAWYQQKPGKAPKLLIYAASSLQSGVPSRFSGSGSGTDFTLTISSLQPEDFATYYCQQGVSFPRTFGGGTKVEIKRTVAAPSVFIFPPSDEQLKSGTASVVCLLNNFYPREAKVQWKVDNALQSGNSQESVTEQDSKDSTYSLSSTLTLSKADYEKHKVYACEVTHQGLSSPVTKSFNRGEC
notes: the condition stands under assay; also called AB0192 Lot AB0192-005

Kd [4]: 1.2 nM and 1.19 nM
koff [4]: 0.000952 s⁻¹ and 0.000913 s⁻¹
kon [4]: 791000 M⁻¹ s⁻¹ and 768000 M⁻¹ s⁻¹
fold lower EC50 than AB0010 [5]: ~2 fold
B3: F3'-1602 TriNKET (other)
chain: QLQLQESGPGLVKPSETLSLTCTVSGFSLTNYGLHWIRQPPGKCLEWIGVIWSGGKTDYNPSLKSRVTISKDTSKNQFSLKLSSVQAADTAVYYCAKYDYDDSLDYWGQGTLVTVSSGGGGSGGGGSGGGGSGGGGSDIQMTQSPSSLSASVGDRVTITCHASQNINFWLSWYQQKPGKAPKLLIYEASNLHTGVPSRFSGSGSGTRFTLTISSLQPEDIATYYCQQSHSYPLTFGCGTKLEIKGSDKTHTCPPCPAPELLGGPSVFLFPPKPKDTLMISRTPEVTCVVVDVSHEDPEVKFNWYVDGVEVHNAKTKPREEQYNSTYRVVSVLTVLHQDWLNGKEYKCKVSNKALPAPIEKTISKAKGQPREPRVYTLPPCRDELTKNQVSLTCLVKGFYPSDIAVEWESNGQPENNYKTTPPVLVSDGSFTLYSKLTVDKSRWQQGNVFSCSVMHEALHNHYTQKSLSLSPG
heavy: EVQLVESGGGLVKPGGSLRLSCAASGFTFSSYSMNWVRQAPGKGLEWVSSISSSSSYIYYADSVKGRFTISRDNAKNSLYLQMNSLRAEDTAVYYCARGAPIGAAAGWFDPWGQGTLVTVSSASTKGPSVFPLAPSSKSTSGGTAALGCLVKDYFPEPVTVSWNSGALTSGVHTFPAVLQSSGLYSLSSVVTVPSSSLGTQTYICNVNHKPSNTKVDKKVEPKSCDKTHTCPPCPAPELLGGPSVFLFPPKPKDTLMISRTPEVTCVVVDVSHEDPEVKFNWYVDGVEVHNAKTKPREEQYNSTYRVVSVLTVLHQDWLNGKEYKCKVSNKALPAPIEKTISKAKGQPREPQVCTLPPSRDELTENQVSLTCLVKGFYPSDIAVEWESNGQPENNYKTTPPVLDSDGSFFLYSWLTVDKSRWQQGNVFSCSVMHEALHNHYTQKSLSLSPG
light: DIQMTQSPSSVSASVGDRVTITCRASQGISSWLAWYQQKPGKAPKLLIYAASSLQSGVPSRFSGSGSGTDFTLTISSLQPEDFATYYCQQGVSFPRTFGGGTKVEIKRTVAAPSVFIFPPSDEQLKSGTASVVCLLNNFYPREAKVQWKVDNALQSGNSQESVTEQDSKDSTYSLSSTLTLSKADYEKHKVYACEVTHQGLSSPVTKSFNRGEC
notes: CLEC12A scFv-Fc, NKG2D A49MI Fab-Fc, human IgG1 Fc; also called AB0237
